According to patent US20180258140A1, “NEW DODECAPEPTIDES AND MICROCAPSULES FUNCTIONALISED WITH THEM TARGETED TO FIBROBLASTS” (Infinitec Activos, S.L., priority 2015, published 2018):
*: point of attachment. Palmitoyl = CCCCCCCCCCCCCCCC(=O)*

Legend:
[1] = test system: Human dermal fibroblasts; experiment: Cytotoxicity assay (MTT) in fibroblasts; assay type: cell-based; settings: positive control 0.1% SDS, 48h incubation
Protocol: (§1) Human dermal fibroblasts and human keratinocytes were used. The isolated cells were cultured in DMEM culture medium supplemented with 10% FCS and were incubated at 37° C. for maintenance treatment. Untreated cells were used as negative control. The positive control was 0.1% SDS. The microcapsules as obtained in Example 2 were tested in the DMEM culture medium at 0.03%. These weight percentages refer to the weight of the microcapsule in relation to the total weight. Cells were seeded at 20000 cells per well in a 96-well plate. 24 hours after seeding, cells were incubated under the conditions described above. After 48h of incubation at 37° C., the culture medium was removed and the MTT reagent was added. Cells were incubated 2 hours at 37° C. DMSO was then added and the absorbance of the formed formazan salt was measured at A 570 nm. Lower absorbance values correspond to cells with lower metabolic activity, which correlates with an increased damage and, therefore, with an increased cytotoxic effect. Thus, the amount of living cells is proportional to the amount of formazan produced.

[2] = test system: human keratinocytes; experiment: Cytotoxicity assay (MTT) in keratinocytes; assay type: cell-based; settings: positive control 0.1% SDS, 48h incubation
Protocol: as §1

[3] = biological target: FGFR2 Kinase (Homo sapiens, UniProt P21802); experiment: FGFR2 kinase inhibition; assay type: biochemical; settings: percent inhibition of control enzyme activity; test concentration not given
Protocol: [The source words this procedure for another target and reports this target under the same test.] Evaluation of the effects of the dodecapeptides of the invention on the activity of the human FGFR1 kinase were quantified by measuring the phosphorylation of the substrate Ulight-CAGAGAIETDKEYYTVKD (JAK1) using a human recombinant enzyme expressed in insect cells and the LANCE® detection method using the protocol described below:
The peptide to be tested, the reference compound or water (control) are mixed with the enzyme (0.252 ng) in a buffer containing 40 mM Hepes/Tris (pH 7.4), 0.8 mM EGTA/Tris, 8 mM MgCl2, 1.6 mM DTT and 0.008% Tween 20 (For control basal measurements, the enzyme is omitted from the reaction mixture). Thereafter, the reaction is initiated by adding 100 nM of the substrate Ulight-CAGAGAIETDKEYYTVKD (SEQ ID NO: 13) (JAK-1 peptide) and 100 μM ATP, and the mixture is incubated for 60 min at room temperature. Following incubation, the reaction is stopped by adding 13 mM EDTA. After 5 min, the anti-phospho-PT66 antibody labeled with europium chelate (EU-W1024-labeled Anti-Phosphotyrosine Antibody PT66, from Perkin Elmer) is added. After 60 more min, the fluorescence transfer is measured at λex=337 nm, λem=620 nm and λem=665 nm using a microplate reader (Envision, Perkin Elmer).
The enzyme activity is determined by dividing the signal measured at 665 nm by that measured at 620 nm (ratio). The results are expressed as a percent inhibition of the control enzyme activity.
The standard inhibitory reference compound is staurosporine, which is tested in each experiment at several concentrations to obtain an inhibition curve from which its IC50 value is calculated.
Results showing an inhibition (or stimulation for assays run in basal conditions) higher than 20% are considered to represent significant effects of the peptides of the invention.

Sequence of FGFR2 Kinase (P21802 22-821): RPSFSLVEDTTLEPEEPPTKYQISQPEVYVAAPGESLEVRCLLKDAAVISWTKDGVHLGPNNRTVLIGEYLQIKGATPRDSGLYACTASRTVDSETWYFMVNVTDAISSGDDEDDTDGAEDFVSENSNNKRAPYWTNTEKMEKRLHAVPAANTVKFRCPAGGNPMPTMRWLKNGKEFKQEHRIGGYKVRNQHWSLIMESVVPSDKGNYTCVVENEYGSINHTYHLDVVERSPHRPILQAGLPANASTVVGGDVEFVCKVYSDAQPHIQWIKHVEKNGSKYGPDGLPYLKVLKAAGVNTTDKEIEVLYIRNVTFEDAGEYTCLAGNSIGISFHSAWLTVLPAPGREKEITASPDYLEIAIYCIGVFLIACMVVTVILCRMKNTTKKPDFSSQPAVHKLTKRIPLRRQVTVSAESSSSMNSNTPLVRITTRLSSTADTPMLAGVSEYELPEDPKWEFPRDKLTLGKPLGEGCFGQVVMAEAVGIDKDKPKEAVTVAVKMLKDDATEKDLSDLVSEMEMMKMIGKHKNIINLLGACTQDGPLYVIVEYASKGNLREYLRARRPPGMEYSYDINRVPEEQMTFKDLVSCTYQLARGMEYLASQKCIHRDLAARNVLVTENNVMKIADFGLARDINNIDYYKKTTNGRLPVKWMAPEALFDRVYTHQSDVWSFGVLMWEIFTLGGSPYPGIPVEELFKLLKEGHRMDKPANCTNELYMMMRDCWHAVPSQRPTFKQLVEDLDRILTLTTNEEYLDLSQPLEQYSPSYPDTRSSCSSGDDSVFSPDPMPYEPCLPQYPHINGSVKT

Row | Compound | Fibroblasts % cell viability [1] [%] | Keratinocytes % cell viability [2] [%] | FGFR2 Kinase % Inhibition [3] [%]
1 | CCCCCCCCCCCCOS(=O)(=O)[O-].[Na+] [SDS, Sodium dodecyl sulfate] | 25.0 | 12 | 
2 | Palm-Lys-Phe-Ala-Leu-Pro-Leu-Gly-Asn-Tyr-Lys-Lys-Pro-NH2 (Palmitoyl-KFALPLGNYKKP-NH2; SMILES CCCCCCCCCCCCCCCC(=O)N[C@@H](CCCCN)C(=O)N[C@@H](Cc1ccccc1)C(=O)N[C@@H](C)C(=O)N[C@@H](CC(C)C)C(=O)N1CCC[C@H]1C(=O)N[C@@H](CC(C)C)C(=O)NCC(=O)N[C@@H](CC(N)=O)C(=O)N[C@@H](Cc1ccc(O)cc1)C(=O)N[C@@H](CCCCN)C(=O)N[C@@H](CCCCN)C(=O)N1CCC[C@H]1C(N)=O) [Peptide 3] |  |  | 98.7
3 | Palm-Lys-Phe-Asn-Ala-Pro-Leu-Gly-Asn-Tyr-Lys-Lys-Pro-NH2 (Palmitoyl-KFNAPLGNYKKP-NH2; SMILES CCCCCCCCCCCCCCCC(=O)N[C@@H](CCCCN)C(=O)N[C@@H](Cc1ccccc1)C(=O)N[C@@H](CC(N)=O)C(=O)N[C@@H](C)C(=O)N1CCC[C@H]1C(=O)N[C@@H](CC(C)C)C(=O)NCC(=O)N[C@@H](CC(N)=O)C(=O)N[C@@H](Cc1ccc(O)cc1)C(=O)N[C@@H](CCCCN)C(=O)N[C@@H](CCCCN)C(=O)N1CCC[C@H]1C(N)=O) [Peptide 4] |  |  | 87.5
4 | Palm-Lys-Phe-Asn-Leu-Ala-Leu-Gly-Asn-Tyr-Lys-Lys-Pro-NH2 (Palmitoyl-KFNLALGNYKKP-NH2; SMILES CCCCCCCCCCCCCCCC(=O)N[C@@H](CCCCN)C(=O)N[C@@H](Cc1ccccc1)C(=O)N[C@@H](CC(N)=O)C(=O)N[C@@H](CC(C)C)C(=O)N[C@@H](C)C(=O)N[C@@H](CC(C)C)C(=O)NCC(=O)N[C@@H](CC(N)=O)C(=O)N[C@@H](Cc1ccc(O)cc1)C(=O)N[C@@H](CCCCN)C(=O)N[C@@H](CCCCN)C(=O)N1CCC[C@H]1C(N)=O) [Peptide 5] |  |  | 91.1
5 | Palm-Lys-Phe-Asn-Leu-Pro-Ala-Gly-Asn-Tyr-Lys-Lys-Pro-NH2 (Palmitoyl-KFNLPAGNYKKP-NH2; SMILES CCCCCCCCCCCCCCCC(=O)N[C@@H](CCCCN)C(=O)N[C@@H](Cc1ccccc1)C(=O)N[C@@H](CC(N)=O)C(=O)N[C@@H](CC(C)C)C(=O)N1CCC[C@H]1C(=O)N[C@@H](C)C(=O)NCC(=O)N[C@@H](CC(N)=O)C(=O)N[C@@H](Cc1ccc(O)cc1)C(=O)N[C@@H](CCCCN)C(=O)N[C@@H](CCCCN)C(=O)N1CCC[C@H]1C(N)=O) [Peptide 6] |  |  | 98.8
6 | Palm-Lys-Phe-Asn-Leu-Pro-Leu-Ala-Asn-Tyr-Lys-Lys-Pro-NH2 (Palmitoyl-KFNLPLANYKKP-NH2; SMILES CCCCCCCCCCCCCCCC(=O)N[C@@H](CCCCN)C(=O)N[C@@H](Cc1ccccc1)C(=O)N[C@@H](CC(N)=O)C(=O)N[C@@H](CC(C)C)C(=O)N1CCC[C@H]1C(=O)N[C@@H](CC(C)C)C(=O)N[C@@H](C)C(=O)N[C@@H](CC(N)=O)C(=O)N[C@@H](Cc1ccc(O)cc1)C(=O)N[C@@H](CCCCN)C(=O)N[C@@H](CCCCN)C(=O)N1CCC[C@H]1C(N)=O) [Peptide 7] |  |  | 98.4
7 | Palm-Lys-Phe-Asn-Leu-Pro-Leu-Gly-Ala-Tyr-Lys-Lys-Pro-NH2 (Palmitoyl-KFNLPLGAYKKP-NH2; SMILES CCCCCCCCCCCCCCCC(=O)N[C@@H](CCCCN)C(=O)N[C@@H](Cc1ccccc1)C(=O)N[C@@H](CC(N)=O)C(=O)N[C@@H](CC(C)C)C(=O)N1CCC[C@H]1C(=O)N[C@@H](CC(C)C)C(=O)NCC(=O)N[C@@H](C)C(=O)N[C@@H](Cc1ccc(O)cc1)C(=O)N[C@@H](CCCCN)C(=O)N[C@@H](CCCCN)C(=O)N1CCC[C@H]1C(N)=O) [Peptide 8] |  |  | 98.8
8 | Palm-Lys-Phe-Asn-Leu-Pro-Leu-Gly-Asn-Ala-Lys-Lys-Pro-NH2 (Palmitoyl-KFNLPLGNAKKP-NH2; SMILES CCCCCCCCCCCCCCCC(=O)N[C@@H](CCCCN)C(=O)N[C@@H](Cc1ccccc1)C(=O)N[C@@H](CC(N)=O)C(=O)N[C@@H](CC(C)C)C(=O)N1CCC[C@H]1C(=O)N[C@@H](CC(C)C)C(=O)NCC(=O)N[C@@H](CC(N)=O)C(=O)N[C@@H](C)C(=O)N[C@@H](CCCCN)C(=O)N[C@@H](CCCCN)C(=O)N1CCC[C@H]1C(N)=O) [Peptide 9] |  |  | 99.4
9 | Palm-Lys-Phe-Asn-Leu-Pro-Leu-Gly-Asn-Tyr-Ala-Lys-Pro-NH2 (Palmitoyl-KFNLPLGNYAKP-NH2; SMILES CCCCCCCCCCCCCCCC(=O)N[C@@H](CCCCN)C(=O)N[C@@H](Cc1ccccc1)C(=O)N[C@@H](CC(N)=O)C(=O)N[C@@H](CC(C)C)C(=O)N1CCC[C@H]1C(=O)N[C@@H](CC(C)C)C(=O)NCC(=O)N[C@@H](CC(N)=O)C(=O)N[C@@H](Cc1ccc(O)cc1)C(=O)N[C@@H](C)C(=O)N[C@@H](CCCCN)C(=O)N1CCC[C@H]1C(N)=O) [Peptide 10] |  |  | 93.4
10 | Palm-Lys-Phe-Asn-Leu-Pro-Leu-Gly-Asn-Tyr-Lys-Ala-Pro-NH2 (Palmitoyl-KFNLPLGNYKAP-NH2; SMILES CCCCCCCCCCCCCCCC(=O)N[C@@H](CCCCN)C(=O)N[C@@H](Cc1ccccc1)C(=O)N[C@@H](CC(N)=O)C(=O)N[C@@H](CC(C)C)C(=O)N1CCC[C@H]1C(=O)N[C@@H](CC(C)C)C(=O)NCC(=O)N[C@@H](CC(N)=O)C(=O)N[C@@H](Cc1ccc(O)cc1)C(=O)N[C@@H](CCCCN)C(=O)N[C@@H](C)C(=O)N1CCC[C@H]1C(N)=O) [Peptide 11] |  |  | 89.9
11 | Palm-Lys-Phe-Asn-Leu-Pro-Leu-Gly-Asn-Tyr-Lys-Lys-Ala-NH2 (Palmitoyl-KFNLPLGNYKKA-NH2; SMILES CCCCCCCCCCCCCCCC(=O)N[C@@H](CCCCN)C(=O)N[C@@H](Cc1ccccc1)C(=O)N[C@@H](CC(N)=O)C(=O)N[C@@H](CC(C)C)C(=O)N1CCC[C@H]1C(=O)N[C@@H](CC(C)C)C(=O)NCC(=O)N[C@@H](CC(N)=O)C(=O)N[C@@H](Cc1ccc(O)cc1)C(=O)N[C@@H](CCCCN)C(=O)N[C@@H](CCCCN)C(=O)N[C@@H](C)C(N)=O) [Peptide 12] |  |  | 90.1
12 | Palm-Lys-Phe-Asn-Leu-Pro-Leu-Gly-Asn-Tyr-Lys-Lys-Pro-NH2 (Palmitoyl-KFNLPLGNYKKP-NH2; SMILES CCCCCCCCCCCCCCCC(=O)N[C@@H](CCCCN)C(=O)N[C@@H](Cc1ccccc1)C(=O)N[C@@H](CC(N)=O)C(=O)N[C@@H](CC(C)C)C(=O)N1CCC[C@H]1C(=O)N[C@@H](CC(C)C)C(=O)NCC(=O)N[C@@H](CC(N)=O)C(=O)N[C@@H](Cc1ccc(O)cc1)C(=O)N[C@@H](CCCCN)C(=O)N[C@@H](CCCCN)C(=O)N1CCC[C@H]1C(N)=O) [Peptide 1] |  |  | 95.4
